In doi:10.1101/2025.11.24.690281:

Target: GST-tagged intracellular c-terminus of LRP6, in vitro phosphorylated with GSK3 and CK1
Experiment: pull-down

fold increase of the interaction against unphosphorylated GST-LRP6: 20 fold
Substance: Strep-tag-Mena-EVH1-CC (domain or fragment)
